Data from EP4659810A1.

How the values were obtained:
[1] = target: VP1 on BKV genotype Ia pseudovirions (BK-D; JF894228) (BK virus genotype Ia (BK-D; JF894228)) (UniProt P03088); assay: cell-based or functional assay
[2] = target: VP1 on entire replicative virions of BK virus genotype Ia (Dunlop strain; ATCC VR-837) (BK virus genotype Ia (Dunlop strain)) (UniProt P03088); assay: cell-based or functional assay
[3] = target: VP1 on BKV genotype II pseudovirions (GBR-12; AB263920) (BK virus genotype II (GBR-12; AB263920)) (UniProt P14996); assay: cell-based or functional assay
[4] = target: VP1 on entire replicative virions of BKV genotype II (patient's isolate) (BK virus genotype II); assay: cell-based or functional assay
[5] = target: VP1 pentamer of BKV genotype I (truncated VP1, residues 31 to 301, C104S) (BK virus genotype I (Dunlop sequence)) (UniProt P03088); assay: BLI (OctetRED96e), biotinylated VP1 pentamer on streptavidin sensor, mAb 0 to 40 nM in solution

MTX005 from Memo Therapeutics AG (referred as 319C07 in WO2021/250097) (antibody), sequence (VH): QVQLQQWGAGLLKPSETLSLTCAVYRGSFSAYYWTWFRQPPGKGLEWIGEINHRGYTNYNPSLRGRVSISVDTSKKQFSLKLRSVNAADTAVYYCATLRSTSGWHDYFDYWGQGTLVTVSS
MTX005 from Memo Therapeutics AG (referred as 319C07 in WO2021/250097) (antibody), sequence (VL): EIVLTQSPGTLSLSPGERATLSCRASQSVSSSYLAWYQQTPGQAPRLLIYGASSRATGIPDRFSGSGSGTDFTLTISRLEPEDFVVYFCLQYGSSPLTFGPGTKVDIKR

Substance: MTX005 from Memo Therapeutics AG (referred as 319C07 in WO2021/250097) (antibody)
- IC50, neutralization of BKV pseudovirions (luciferase, 293TT cells) [1]: 0.03 ng/mL
- IC50, neutralization of fully replicative BKV virions (MRC5 cells) [2]: 0.05 ng/mL
- IC50, neutralization of BKV pseudovirions (luciferase, 293TT cells) [3]: 0.08 ng/mL
- IC50, neutralization of fully replicative BKV virions (MRC5 cells) [4]: 0.03 ng/mL
- Kd [5]: 17.9 nM
